Experimental data taken from the supplement of paper PMC10126150.
± gives the standard deviation of the averaged measurements.

Test system: ATP
Experiment: switch fluorescence ratio, 500 uM ATP over buffer (Cy3 cluster intensity, sum of 5 cycles each) (fold (ratio)); higher = stronger signal-on switching upon ATP binding; sequences stand for … in TCGTCGGCAGCGTCAGATGTGTATAAGAGACAGTTTTTTTTTTTTTTTTTTTTTTTTT…TC
Conditions: aptamer strand: ATP DNA aptamer (quencher-CACCTGGGGGAGTATTGCGGAGGAAGG + anchor), 100 nM annealed; ATP concentration: 500 uM
Procedure, shortened: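 After annealing to 100 nM quencher-labelled ATP aptamer, Cy3-labelled switching-strand clusters on a modified Illumina MiSeq flow-cell were imaged in selection buffer. A second image followed after 15 min with 500 uM ATP at 22 °C, and five such buffer/ATP cycles were done, each separated by NaOH stripping and re-annealing. The fluorescence ratio, averaged per switch-domain sequence, is summed target-cycle over summed buffer-cycle Cy3 intensity per cluster, with clusters outside 100-1000 RFU excluded.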
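Note: ATP exposure 15 min at 22 °C before imaging.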

Row | Sequence | switch fluorescence ratio
1 | AGTACCATGG | 1.01 ± 0.06
2 | AGTACGGTAA | 1.13 ± 0.025
3 | AGTACGTCTC | 1.04 ± 0.0099
4 | AGTAGGAAGC | 1.01 ± 0.03
5 | AGTAGGAATT | 0.99 ± 0.038
6 | AGTAGGACGC | 1.02 ± 0.018
7 | AGTAGGGGCC | 1.012 ± 0.0083
8 | AGTAGGGGG | 1 ± 0.056
9 | AGTAGTACGG | 1 ± 0.029
10 | AGTAGTGCGT | 0.997 ± 0.04
11 | AGTAGTGGGG | 0.994 ± 0.013
12 | AGTATAATTT | 0.978 ± 0.045
13 | AGTATATATT | 1.003 ± 0.0035
14 | AGTATATGTG | 0.955 ± 0.023
15 | AGTATATTTT | 1.006 ± 0.0046
16 | AGTATCACGG | 1.011 ± 0.0068
17 | AGTATCGTGC | 0.9968 ± 0.0098
18 | AGTATGACGT | 0.986 ± 0.026
19 | AGTATGAGGG | 1 ± 0.076
20 | AGTATGAGTC | 1.056 ± 0.01
21 | AGTATGGTAG | 1.0145 ± 0.00092
22 | AGTATTAATG | 1 ± 0.04

Row | Sequence | switch fluorescence ratio
23 | AGTATTAGAA | 0.978 ± 0.012
24 | AGTATTGGTT | 0.986 ± 0.021
25 | AGTCAAACGA | 1.03 ± 0.028
26 | AGTCAAATGG | 0.996 ± 0.043
27 | AGTCAAGGGT | 1 ± 0.0014
28 | AGTCAGGTT | 1.02 ± 0.019
29 | AGTCAGTCTG | 1.01 ± 0.059
30 | AGTCAGTTGG | 0.967 ± 0.041
31 | AGTCATAAAG | 0.984 ± 0.014
32 | AGTCCAAGAG | 0.9889 ± 0.0045
33 | AGTCCCGTGC | 1.03 ± 0.052
34 | AGTCCTAGCC | 0.97 ± 0.012
35 | AGTCCTCGGC | 1.13 ± 0.071
36 | AGTCCTGGCC | 0.999 ± 0.022
37 | AGTCCTGGCG | 1.07 ± 0.023
38 | AGTCCTTTTT | 0.979 ± 0.021
39 | AGTCGATGTC | 0.9763 ± 0.0039
40 | AGTCGCCCGC | 1.02 ± 0.032
41 | AGTCGCGGAG | 1 ± 0.08
42 | AGTCGGGGGA | 1.01 ± 0.023
43 | AGTCGGGGTA | 1.02 ± 0.027
44 | AGTCGGTGTG | 0.963 ± 0.0099

Row | Sequence | switch fluorescence ratio
45 | AGTCGTCTTG | 0.977 ± 0.026
46 | AGTCTAAACT | 1.02 ± 0.016
47 | AGTCTACTAT | 1 ± 0.0088
48 | AGTCTCAAGT | 1.01 ± 0.045
49 | AGTCTGAAGG | 0.995 ± 0.014
50 | AGTCTGCCA | 0.977 ± 0.015
51 | AGTCTGGGGG | 0.959 ± 0.011
52 | AGTCTTAGTC | 0.9497 ± 0.002
53 | AGTGAAGGGG | 1.1 ± 0.15
54 | AGTGAATTCA | 1.016 ± 0.0062
55 | AGTGACGGTT | 0.977 ± 0.021
56 | AGTGAGAGGG | 0.966 ± 0.051
57 | AGTGAGGCGG | 1.02 ± 0.013
58 | AGTGAGGGAA | 0.9787 ± 0.003
59 | AGTGAGGGGA | 0.975 ± 0.015
60 | AGTGAGTGCA | 1.039 ± 0.0094
61 | AGTGATGTGG | 1 ± 0.024
62 | AGTGATTCGT | 1.01 ± 0.038
63 | AGTGATTGAA | 0.987 ± 0.033
64 | AGTGATTGGG | 0.995 ± 0.031
65 | AGTGCAACTG | 1.01 ± 0.03
66 | AGTGCAGGGA | 0.9894 ± 0.0077

Row | Sequence | switch fluorescence ratio
67 | AGTGCCTATG | 0.994 ± 0.019
68 | AGTGCGCATG | 1.01 ± 0.032
69 | AGTGCGGCCG | 0.9846 ± 0.0036
70 | AGTGCGGTGG | 1 ± 0.059
71 | AGTGCTTACG | 0.995 ± 0.025
72 | AGTGCTTTTA | 0.9927 ± 0.0073
73 | AGTGGATATT | 1.02 ± 0.011
74 | AGTGGCACTG | 0.996 ± 0.0088
75 | AGTGGCTTCC | 2.043 ± 0.013
76 | AGTGGGATTA | 1.01 ± 0.021
77 | AGTGGGCGGG | 1.003 ± 0.0097
78 | AGTGGGCTAT | 0.999 ± 0.027
79 | AGTGGGGAGC | 0.978 ± 0.031
80 | AGTGGTATAG | 1.01 ± 0.034
81 | AGTGGTGCCG | 0.989 ± 0.02
82 | AGTGGTGGTT | 0.977 ± 0.057
83 | AGTGGTGTCT | 1.01 ± 0.033
84 | AGTGGTGTTT | 0.989 ± 0.016
85 | AGTGTAATGC | 1.15 ± 0.022
